Measurements as given in patent US20240270857A1 (CHIA TAI TIANQING PHARMACEUTICAL GROUP, published 2024).
Each block holds one binder with its values, some of them ahead of it.

Experiments:
[1] = molecular target: T1, cynomolgus IL-36R overexpressed on 293T-CynoIL36R-NFκB cells (cynomolgus monkey); assay: FACS on 293T-CynoIL36R-NFκB cells, ratio of MFI to background MFI
T1 construct: Entry includes the signal peptide; also called monkey IL-36R
T1 chain: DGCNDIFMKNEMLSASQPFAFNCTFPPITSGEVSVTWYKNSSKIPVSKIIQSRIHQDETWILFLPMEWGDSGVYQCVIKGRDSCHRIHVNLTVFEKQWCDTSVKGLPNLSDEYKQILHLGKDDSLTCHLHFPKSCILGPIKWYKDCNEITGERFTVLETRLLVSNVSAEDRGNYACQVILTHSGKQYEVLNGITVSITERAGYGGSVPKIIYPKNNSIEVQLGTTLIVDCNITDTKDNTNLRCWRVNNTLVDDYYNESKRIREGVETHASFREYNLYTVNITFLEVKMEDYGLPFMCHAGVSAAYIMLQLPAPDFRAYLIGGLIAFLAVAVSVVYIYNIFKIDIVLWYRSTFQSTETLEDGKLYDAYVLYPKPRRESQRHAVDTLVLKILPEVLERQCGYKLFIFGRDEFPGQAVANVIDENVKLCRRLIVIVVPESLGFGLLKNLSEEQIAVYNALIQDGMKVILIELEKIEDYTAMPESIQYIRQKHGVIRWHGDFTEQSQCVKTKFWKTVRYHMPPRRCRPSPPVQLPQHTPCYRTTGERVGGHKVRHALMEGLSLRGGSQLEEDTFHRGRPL
Protocol: After the cells was washed with PBS, the cells were resuspended with 100 μL of PBS and then the fluorescence signal was detected using a flow cytometer (BD, Accuri C6). […] The ratio was the ratio of mean fluorescence intensity (MFI) of the experimental group/the background MFI, and the resulting data were analyzed using GraphPad Prism.

[2] = molecular target: T2, CynoIL36R-ECD mFc recombinant protein (cynomolgus monkey); assay: BLI (ForteBio Octet), antibody on ProA sensor, 1:1 model
T2 construct: Made in ExpiCHO, purified on Protein A; also called cynomolgus IL-36R extracellular region with mouse antibody heavy chain Fc
T2 chain: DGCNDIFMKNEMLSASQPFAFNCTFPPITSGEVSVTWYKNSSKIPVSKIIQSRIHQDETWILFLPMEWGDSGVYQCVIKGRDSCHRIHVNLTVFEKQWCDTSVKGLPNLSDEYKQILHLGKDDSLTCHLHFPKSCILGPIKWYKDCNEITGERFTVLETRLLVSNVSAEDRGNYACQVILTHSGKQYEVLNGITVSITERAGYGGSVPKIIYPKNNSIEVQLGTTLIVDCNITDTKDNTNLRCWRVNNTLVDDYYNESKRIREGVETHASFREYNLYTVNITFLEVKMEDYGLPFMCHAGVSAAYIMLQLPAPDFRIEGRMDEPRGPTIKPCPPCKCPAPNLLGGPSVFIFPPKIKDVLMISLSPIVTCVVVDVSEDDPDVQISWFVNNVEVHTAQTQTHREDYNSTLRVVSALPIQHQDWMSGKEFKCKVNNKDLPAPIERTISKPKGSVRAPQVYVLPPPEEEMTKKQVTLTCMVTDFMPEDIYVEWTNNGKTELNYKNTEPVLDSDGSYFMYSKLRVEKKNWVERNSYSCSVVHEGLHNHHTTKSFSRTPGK
Protocol: The affinity of anti-IL-36R antibodies to CynoIL36R-ECD mFc and human IL-1Rrp2/IL-IR6 protein, His Tag (ACROBiosystems, IL2-H52H6) was measured by a ForteBio molecular interaction instrument. […] And then the biosensor was used to bind CynoIL36R-ECD mFc or human IL-1Rrp2/IL-1R6 protein, His Tag which was diluted by a gradient (the initial concentration was 200 nM, 2-fold gradient dilution), the response signals were detected in real time using a Fortebio molecular interaction instrument (SARTORIUS, octet red 96e), and association and dissociation curves were obtained. After the completion of dissociation in each cycle, the biosensor was regenerated for the next capture; the procedure was repeated until the affinity of the different anti-IL-36R antibodies for IL-36R was determined. The resulting data were analyzed by Fortebio Data Analysis 11.0 software in a 1:1 (Langmuir) binding model to determine kₐ (kₒₙ) and kd (koff) values, and the dissociation constant KD was calculated by KD=kd/kₐ. The detection method essentially followed the manufacturer's recommendations, and more information could be found at www.fortebio.com.
Affinity, binding and blocking assays for humanized antibodies hz72C1-1.1, hz72C1-1.2, hz72C1-1.3, hz72C1-2.1, hz72C1-2.2 and hz72C1-2.3 as well as hz84C4-1.1, hz84C4-1.2, hz84C4-1.3, hz84C4-1.4, hz84C4-1.5, hz84C4-2.1, hz84C4-2.2, hz84C4-2.3, hz84C4-2.4 and hz84C4-2.5 were performed according to the methods of Example 4, Example 5. Example 6, Example 7 and Example 8.

[3] = molecular target: T1, cynomolgus IL-36R overexpressed on …; assay: cell-based or functional assay

B1: chimeric 84C4 antibody (antibody, human IgG4 S228P, kappa)
heavy: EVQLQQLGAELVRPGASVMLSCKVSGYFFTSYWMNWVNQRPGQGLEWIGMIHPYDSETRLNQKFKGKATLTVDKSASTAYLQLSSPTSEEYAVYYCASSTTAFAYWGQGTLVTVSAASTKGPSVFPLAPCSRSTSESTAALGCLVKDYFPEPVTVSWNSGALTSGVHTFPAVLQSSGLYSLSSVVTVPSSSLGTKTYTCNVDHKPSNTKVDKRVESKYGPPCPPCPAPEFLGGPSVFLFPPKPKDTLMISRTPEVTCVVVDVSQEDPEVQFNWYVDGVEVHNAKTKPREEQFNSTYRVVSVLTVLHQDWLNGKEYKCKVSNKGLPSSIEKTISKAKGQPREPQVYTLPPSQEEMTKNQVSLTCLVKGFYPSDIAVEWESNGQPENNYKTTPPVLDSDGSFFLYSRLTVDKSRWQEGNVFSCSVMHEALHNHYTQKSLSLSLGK
light: DILMTQSPSSLSASLGERVSLTCRASQDIGNALNWLQQAPDGTIKRLIYATSSLDPGVPKRFSGSRSGSDYSLTISSLASEDFVYYYCLQYASSPYTFGGGTKLEIKRTVAAPSVFIFPPSDEQLKSGTASVVCLLNNFYPREAKVQWKVDNALQSGNSQESVTEQDSKDSTYSLSSTLTLSKADYEKHKVYACEVTHQGLSSPVTKSFNRGEC
notes: Mouse variable regions on human IgG4 / kappa; also called xi84C4
- EC50 [1]: 36.6 nM

B3: BI655130 (antibody, human IgG1, kappa, L234A L235A)
heavy: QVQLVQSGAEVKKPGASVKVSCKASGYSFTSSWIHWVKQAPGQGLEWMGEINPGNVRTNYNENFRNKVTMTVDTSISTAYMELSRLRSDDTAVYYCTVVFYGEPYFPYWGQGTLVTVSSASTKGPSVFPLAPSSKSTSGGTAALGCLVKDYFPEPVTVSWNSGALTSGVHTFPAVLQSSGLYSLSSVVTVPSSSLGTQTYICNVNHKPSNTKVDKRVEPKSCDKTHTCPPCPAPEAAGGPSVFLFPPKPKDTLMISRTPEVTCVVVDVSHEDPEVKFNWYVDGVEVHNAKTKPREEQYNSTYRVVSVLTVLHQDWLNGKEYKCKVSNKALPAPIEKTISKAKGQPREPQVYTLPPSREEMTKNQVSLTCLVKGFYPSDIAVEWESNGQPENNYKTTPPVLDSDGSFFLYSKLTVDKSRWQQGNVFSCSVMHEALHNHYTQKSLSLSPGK
light: QIVLTQSPGTLSLSPGERATMTCTASSSVSSSYFHWYQQKPGQAPRLWIYRTSRLASGVPDRFSGSGSGTDFTLTISRLEPEDAATYYCHQFHRSPLTFGAGTKLEIKRTVAAPSVFIFPPSDEQLKSGTASVVCLLNNFYPREAKVQWKVDNALQSGNSQESVTEQDSKDSTYSLSSTLTLSKADYEKHKVYACEVTHQGLSSPVTKSFNRGEC
notes: also called Spesolimab
- Kd [2]: 2.46 nM
- koff [2]: 7.26e-05 s⁻¹
- kon [2]: 29500 M⁻¹ s⁻¹
- EC50 [1]: 9.64 nM
- IC50 (M); hIL36α; NFκB-luciferase [3]: 2.77e-08 M
- IC50 (M); hIL36β; NFκB-luciferase [3]: 5.63e-08 M
- IC50 (M); hIL36γ; NFκB-luciferase [3]: 1.19e-08 M
- Maximum inhibition rate %; hIL36α; NFκB-luciferase [3]: 49.1%
- Maximum inhibition rate %; hIL36β; NFκB-luciferase [3]: 60.8%
- Maximum inhibition rate %; hIL36γ; NFκB-luciferase [3]: 83.1%

B4: hz72C1-1.1 (antibody, human IgG4 S228P, kappa)
heavy: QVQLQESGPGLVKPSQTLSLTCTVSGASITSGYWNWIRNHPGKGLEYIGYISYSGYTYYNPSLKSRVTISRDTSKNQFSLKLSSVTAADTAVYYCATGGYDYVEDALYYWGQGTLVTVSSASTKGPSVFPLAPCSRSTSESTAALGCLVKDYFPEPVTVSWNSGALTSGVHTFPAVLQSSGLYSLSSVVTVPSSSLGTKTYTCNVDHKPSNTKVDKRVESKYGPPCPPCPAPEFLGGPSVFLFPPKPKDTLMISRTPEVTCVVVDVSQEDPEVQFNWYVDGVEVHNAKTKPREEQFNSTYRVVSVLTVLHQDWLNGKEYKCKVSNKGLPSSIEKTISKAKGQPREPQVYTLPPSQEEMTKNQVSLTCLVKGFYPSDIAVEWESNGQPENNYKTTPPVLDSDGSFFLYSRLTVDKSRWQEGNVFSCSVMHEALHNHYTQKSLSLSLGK
light: DIQMTQSPSSLSASVGDRVTITCRASSNVRYMYWYQQKPGKAPKLWIYLTSNLASGVPSRFSGSGSGTSYTLTISSLQPEDFATYYCQQFTTSPYTFGQGTKLEIKRTVAAPSVFIFPPSDEQLKSGTASVVCLLNNFYPREAKVQWKVDNALQSGNSQESVTEQDSKDSTYSLSSTLTLSKADYEKHKVYACEVTHQGLSSPVTKSFNRGEC
notes: Humanized, human IgG4 / kappa; also called humanized 72C1 antibody 1.1
- Kd [2]: 0.66 nM
- koff [2]: 1.51e-05 s⁻¹
- kon [2]: 22800 M⁻¹ s⁻¹
- IC50 (M); hIL36α; NFκB-luciferase [3]: 3.15e-09 M
- IC50 (M); hIL36β; NFκB-luciferase [3]: 3.09e-09 M
- IC50 (M); hIL36γ; NFκB-luciferase [3]: 1.66e-09 M
- Maximum inhibition rate %; hIL36α; NFκB-luciferase [3]: 101%
- Maximum inhibition rate %; hIL36β; NFκB-luciferase [3]: 100%
- Maximum inhibition rate %; hIL36γ; NFκB-luciferase [3]: 104%

Other lines, results leading:

- Kd [2]: 0.352 nM
- koff [2]: 9.04e-06 s⁻¹
- kon [2]: 25700 M⁻¹ s⁻¹
- EC50 [1]: 8.96 nM
B2: chimeric 72C1 antibody (antibody, human IgG4 S228P, kappa)
heavy: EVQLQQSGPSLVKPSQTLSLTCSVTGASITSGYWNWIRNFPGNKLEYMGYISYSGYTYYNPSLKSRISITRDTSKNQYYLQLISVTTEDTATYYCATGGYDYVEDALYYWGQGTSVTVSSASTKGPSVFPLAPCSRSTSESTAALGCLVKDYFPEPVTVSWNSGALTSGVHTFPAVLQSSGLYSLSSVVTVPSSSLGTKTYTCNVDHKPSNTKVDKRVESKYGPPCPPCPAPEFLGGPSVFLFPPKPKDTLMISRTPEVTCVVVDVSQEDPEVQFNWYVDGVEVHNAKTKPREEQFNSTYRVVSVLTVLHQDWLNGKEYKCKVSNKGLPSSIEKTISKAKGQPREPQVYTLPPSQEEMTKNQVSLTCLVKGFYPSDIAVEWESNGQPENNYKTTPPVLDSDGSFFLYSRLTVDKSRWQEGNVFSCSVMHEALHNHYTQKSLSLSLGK
light: EILLTQSPAIMSATLGEKVTMSCRASSNVRYMYWYQLKSGASPKLWIYLTSNLASGVPARFSGSGSGTSYSLTISSVEAEDAATYFCQQFTTSPYTFGGGTKLEIKRTVAAPSVFIFPPSDEQLKSGTASVVCLLNNFYPREAKVQWKVDNALQSGNSQESVTEQDSKDSTYSLSSTLTLSKADYEKHKVYACEVTHQGLSSPVTKSFNRGEC
notes: Mouse variable regions on human IgG4 / kappa; also called xi72C1

- Kd [2]: 0.445 nM
- koff [2]: 9.42e-06 s⁻¹
- kon [2]: 21200 M⁻¹ s⁻¹
- IC50 (M); hIL36α; NFκB-luciferase [3]: 3.13e-09 M
- IC50 (M); hIL36β; NFκB-luciferase [3]: 2.7e-09 M
- IC50 (M); hIL36γ; NFκB-luciferase [3]: 1.65e-09 M
- Maximum inhibition rate %; hIL36α; NFκB-luciferase [3]: 101%
- Maximum inhibition rate %; hIL36β; NFκB-luciferase [3]: 101%
- Maximum inhibition rate %; hIL36γ; NFκB-luciferase [3]: 103%
B5: hz72C1-1.3 (antibody, human IgG4 S228P, kappa)
heavy: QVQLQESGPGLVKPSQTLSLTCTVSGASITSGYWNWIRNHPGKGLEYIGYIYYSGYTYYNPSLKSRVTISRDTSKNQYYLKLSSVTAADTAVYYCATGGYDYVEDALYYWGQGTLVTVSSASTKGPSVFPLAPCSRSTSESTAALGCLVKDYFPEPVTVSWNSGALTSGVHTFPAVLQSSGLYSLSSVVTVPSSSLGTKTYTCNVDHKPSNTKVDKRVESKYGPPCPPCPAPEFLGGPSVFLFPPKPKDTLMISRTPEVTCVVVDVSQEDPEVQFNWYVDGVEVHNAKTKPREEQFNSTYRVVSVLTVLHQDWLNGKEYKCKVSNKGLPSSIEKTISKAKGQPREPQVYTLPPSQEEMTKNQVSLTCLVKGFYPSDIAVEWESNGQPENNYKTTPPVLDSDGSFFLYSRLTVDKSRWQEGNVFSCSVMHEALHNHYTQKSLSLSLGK
light: B4 light
notes: Humanized, human IgG4 / kappa
